Experimental findings from paper PMC4702122, “Embelin binds to human neuroserpin and impairs its polymerisation” (Scientific Reports, 2016) are described below.

The target in test [1] is T1, 2ctPA (active form of recombinant tPA) (Homo sapiens, UniProt P00750).
T1 construct: gene PLAT
As to the kind of experiment: tPA hydrolytic activity assay. The format is biochemical. Particulars: direct inhibition stated, data not shown; conditions not given.

In test [2] the target is Neuroserpin (SERPINI1), wild type, uncleaved (human) (UniProt Q99574). Briefly: SEC-MALS; Nat incubated with EMB; peaks eluted at 13.7 and 12.5 ml; SEC-HPLC, 200 μL at 4 mg/mL. A general note: In gel filtration, larger molecules generally elute earlier.
For test [3] the target is unchanged. Briefly: SEC; Nat (4 mg/ml) with 1.5 mM (saturated) EMB overnight at 4, 20, 37, 45, 55 °C; Superdex200 10/300 GL, 10 mM Tris HCl, 50 mM KCl, pH 8.0; fractions also by SDS-PAGE.
Test [4] shares this target. Briefly: native MS; nano-ESI-MS of the SEC peak at 12.5 ml of Nat incubated overnight at 20 °C with EMB; 100 mM ammonium acetate pH 8, 10-20 μM protein, declustering potential 300 V.

Values joined by “and” are separate entries in the source; they are usually repeats but may differ in a detail not shown here. Identical values can stand only once.

T1 sequence (P00750 36-562): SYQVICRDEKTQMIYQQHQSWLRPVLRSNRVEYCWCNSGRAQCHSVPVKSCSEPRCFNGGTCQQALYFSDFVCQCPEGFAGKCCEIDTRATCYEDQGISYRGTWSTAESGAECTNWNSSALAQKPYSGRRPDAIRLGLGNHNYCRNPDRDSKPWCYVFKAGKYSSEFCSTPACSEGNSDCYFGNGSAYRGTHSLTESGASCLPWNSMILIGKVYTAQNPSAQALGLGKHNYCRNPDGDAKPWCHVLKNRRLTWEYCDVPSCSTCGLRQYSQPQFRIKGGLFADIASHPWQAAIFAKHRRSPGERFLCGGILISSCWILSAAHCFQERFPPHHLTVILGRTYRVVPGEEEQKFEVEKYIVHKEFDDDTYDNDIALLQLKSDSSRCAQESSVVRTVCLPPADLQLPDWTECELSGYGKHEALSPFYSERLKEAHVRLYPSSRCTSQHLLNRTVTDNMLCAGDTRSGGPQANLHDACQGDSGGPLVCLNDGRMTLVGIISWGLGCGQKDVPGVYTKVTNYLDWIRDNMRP

In the case of `CCCCCCCCCCCC1=C(O)C(=O)C=C(O)C1=O` [EMB, embelin], in test [1], the “tPA hydrolytic activity assay” value was “Due to direct inhibitory effect of EMB on tPA”.

With “Neuroserpin (SERPINI1), wild type, uncleaved (from UniProt Q99574 17-410) (natural protein)”, the stoichiometry N – broadly, the number of molecules, sites or subunits per partner or assembly – in test [2] is 2; in test [3], 2 to 8; in test [4], 3 and 4 and 2.
